# Measurements from article PMC8172134.
# Target: WIV16 RBD ([change] domain) (bat SARS-like coronavirus WIV16)
substance,measurement,value
human monoclonal antibody 47D11,IC50 of neutralization of WIV16-S pseudotyped VSV (luciferase) on VeroE6 cells,0.165 µg/mL
